From article PMC4159696 come the findings set out here.

The target of test [1] is NapD with an N-terminal hexa His-tag (NapD^NHis) (Escherichia coli) (UniProt P0A9I5). Nature of the test: AUC; sedimentation equilibrium, 4 °C, about 100 kDa complex (fraction 80 of SEC), 0.5 to 1.0 mg/mL, interference and absorbance optics at 260, 280 and 300 nm.
For test [2] the target is unchanged. Nature of the test: SAXS; purified NapD^NHis/NapA complex, P12 BioSAXS beamline (PETRA III), 7 °C.

UniProt P0A9I5, sequence (P0A9I5 whole entry): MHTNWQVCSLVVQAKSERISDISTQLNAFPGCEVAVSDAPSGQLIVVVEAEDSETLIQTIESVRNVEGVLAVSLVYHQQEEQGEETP

As usually defined, the stoichiometry N is the number of molecules, sites or subunits per partner or assembly. Turning to “full-length NapA precursor protein (from UniProt P33937 37-828) (natural protein)”, the stoichiometry N in test [1] and in test [2] was 1 in each case.
